Assay [1] deals with VASP-EVH1 domain (UniProt P50552). As to the kind of experiment: ITC. A general note: ITC needs no label: the signal is the heat of the interaction.
Assay [2] has the same target. As to the kind of experiment: fluorescence titration (FT).
In assay [3] the target is T1, VASP-EVH1 domain (UniProt P50552 1-115).
T1 construct: domain: EVH1
As to the kind of experiment: fluorescence titration (FT).

The target in assay [4] is T1, VASP-EVH1 domain. As to the kind of experiment: ITC.

[ ]: non-standard residue; d: D form. Phe(2-Cl) = N[C@@H](Cc1ccccc1Cl)C(=O)O

T1 sequence (P50552 1-115 limits assumed): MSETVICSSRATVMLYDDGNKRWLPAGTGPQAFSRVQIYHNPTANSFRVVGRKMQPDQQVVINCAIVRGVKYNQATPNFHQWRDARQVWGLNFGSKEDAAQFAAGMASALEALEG
Sequence of VASP-EVH1 domain (UniProt P50552) (P50552 1-115 limits assumed): as above

On to Ac-Phe(2-Cl)-PP[ProM-9]-OH (peptide), for which, in the assay with VASP-EVH1 domain [1], the Kd was found to be 8 µM and the ΔG was -6.96 kcal/mol. In the assay with VASP-EVH1 domain [2], this molecule showed a Kd of 0.4 µM and a ΔG of -8.77 kcal/mol.

In the assay with VASP-EVH1 domain [1], Ac-Phe(2-Cl)-PP[ProM-1]-OH (peptide) registered a Kd of 14.1 µM and a ΔG of -6.62 kcal/mol. In the assay with VASP-EVH1 domain [2], the Kd is 3.2 µM and the ΔG was -7.5 kcal/mol.

In the case of Ac-Phe(2-Cl)-[ProM-2][ProM-4]-OH, in the assay with VASP-EVH1 domain [1], the Kd was 9.7 µM and the ΔG is -6.84 kcal/mol. Besides, in the assay with VASP-EVH1 domain [2], the Kd was 1.6 µM and the ΔG is -7.91 kcal/mol.

B1: Ac-Phe(2-Cl)-PPPP-OH (peptide)
peptide: Ac-[Phe(2-Cl)]PPPP-OH
SMILES: CC(=O)N[C@@H](Cc1ccccc1Cl)C(=O)N1CCC[C@H]1C(=O)N1CCC[C@H]1C(=O)N1CCC[C@H]1C(=O)N1CCC[C@H]1C(=O)O
B1: in the assay with VASP-EVH1 domain [3], the Kd was 13 µM and the ΔG was -6.64 kcal/mol. In the assay with VASP-EVH1 domain [4], this molecule showed a Kd of 18 µM and a ΔG of -6.45 kcal/mol.

B2: Ac-FPPPP-OH (peptide)
peptide: Ac-FPPPP-OH
notes: Starting ligand shortened to the FPPPP core motif; also called FPPPP core motif ligand
Turning to B2, the Kd with VASP-EVH1 domain [3] worked out at 780 µM; with VASP-EVH1 domain [4], 1300 µM. In addition, the ΔG in the assay with VASP-EVH1 domain [3] is -4.23 kcal/mol; with VASP-EVH1 domain [4] it was -3.94 kcal/mol.

The Kd is a measure of binding affinity in units of concentration. A higher Kd goes with a looser complex.
